Reference: the nanobody polyreactivity screen of Harvey et al. (2022)

Assay: yeast display, Sf9 membrane polyspecificity reagent, FACS + sequencing; frameworks hold sequencing errors
In short: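 Nanobodies came from a synthetic yeast display library in Saccharomyces cerevisiae BJ5465, induced with galactose for 36–48 hours and stained for 1 hour at 4 °C with 10% biotinylated, detergent-solubilized Sf9 membrane reagent. Cells were enriched on streptavidin microbeads and then FACS-sorted, with low and high (top ~1%) gates set on anti-HA fluorescence for expression and streptavidin fluorescence for reagent binding. Each polyreactivity label reflects the gate a clone came from. Genes were amplified by colony PCR, sequenced by MiSeq 2 × 250 and filtered by CDR length.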

| Sequence | polyreactivity (PSR sort gate) |
| --- | --- |
| QVHLVESGGGLVQAGGSLRLSCAASGRIFVPYVMGWNRQAPGTERELVASISDSDTSTYYADSVKGRFTISRDNAKNTVYVEMISLKPEDTAVYDCNVDYWGQGTHVTVSS | low polyreactivity |
| QVHLVESGGGLVQAGGSLRLSCAASGRIFYGYAMGWYRQAPWKEREFVAAITWRGGTFYADSVKGRFTISRDNAKNTVYLQMNSLKPEDTAVYYCAARVSSYGRYDYWGQGTQVTVSS | high polyreactivity |
| QVHLVESGGGLVQAGGSLRLSCAASGRIFYYNAIGWYRQAPGKERELVANITRARGTYYADSVKGPFTISRDNAKNTVYLQMNSLKPEDTAVYYCAKRHPIVDDYKGDYWGQGTQVTVSS | low polyreactivity |
| QVHLVESGGGLVQAGGSLRLSCAASGRIFYYNTMGWYRQAPGKERELVAAITTNGGSTYYADSVKGRFTISRDNAKNTVYLQMNSLKPEDTAVYYCNRDRYPYYYAYNYWGQGTQVTVSS | low polyreactivity |
| QVHLVESGGGLVQAGGSLRLSCAASGRIIWNYAMGWYRQAPGKERELVASINRSGGTTYYADSVKGRFTISRDNAKNTVYLQMNSLKPEDTAVYYCNTVYYGNFYSTRYDYWGQGTQVTVSS | high polyreactivity |
| QVHLVESGGGLVQAGGSLRLSCAASGRILGYYAMVWYRQAPGKERELVAAISRGGRTNYADSVKGRFTISRDNAKNTVYLQMNSLKPEDTAVYYCAKDVAGLFHVGALYYYWGQGTQVTVSS | low polyreactivity |
| QVHLVESGGGLVQAGGSLRLSCAASGRILNWNAMGWYRQAPGKDREFVAAIRTSGGDSTSYADSVKGRFTISRDNAKNTVYLQMTSLKPEDTAVFDCAKTVWWYYRYPFDYWGQGTQVTVSS | low polyreactivity |
| QVHLVESGGGLVQAGGSLRLSCAASGRILTSNAMGWYRQAPGKERELVAAISWSGGSTYYADSVKGRFTISRVNAKNTVYLQMNSLKPEDTAVYYCAAPFTTTFDYWGQGTLVTVSS | low polyreactivity |
| QVHLVESGGGLVQAGGSLRLSCAASGRISYFYAMGWYRQAPGKESELVATITTSAGRTYYADSVKGRFTISRDNAKNTVYLLMNSLKPEDTAVYYCAASRYTYPYNYWGQGTQVTVSS | high polyreactivity |
| QVHLVESGGGLVQAGGSLRLSCAASGRIYKYNAMGWYRQAPGKERELVAAISSGGSTNYADSVKGRFTISRDNAKNTVYLQMNSLKPEDTAVYYCAADGTRVSSFHYLVWLGYWGQGTQVTVSS | low polyreactivity |
| QVHLVESGGGLVQAGGSLRLSCAASGRNSLRNGMGWYKQAPGKEWELDPAITSGSSTDYADSVKGRFTISRDNAKNTVDLEMNSLKPEDTAVSYCAKDLLQYGPGAGRYDYWGQGTQVTVSS | low polyreactivity |
| QVHLVESGGGLVQAGGSLRLSCAASGRTFAPNAMGWYIQAPGKERELVAAISYNSGTTYYADSVKGRFTISRDNAKNTVYLQMNSLKPEDTAVYYCAARRYYKYDWGQGTQVTVSS | high polyreactivity |
| QVHLVESGGGLVQAGGSLRLSCAASGRTFGYYAMGWYRQAPGKERELVATISGRAGRTYYADSVKGRFTISRDNAKNTVYLQMNSLKPEDTAVYYCATRSLQKYYWIANSYGYWGHGTQVTVSS | high polyreactivity |
| QVHLVESGGGLVQAGGSLRLSCAASGRTFQYNAMGWYRQSPGTERELVAAISWRGARTYYADSVKGRFTISRDYAKNTVYLQMNSLNPEDTAVYYCAAAPYGYRRYEYWGQGTQVTVSS | high polyreactivity |
| QVHLVESGGGLVQAGGSLRLSCAASGRTFRQYAMGWNIQAPGKERELVATISSGGSTYYADSVKGRFTISRDNAKNTVYLQMNSLKPEDTSVYYCAAASGTKRLYRGTRGDYWGQGTQVTVSS | low polyreactivity |
| QVHLVESGGGLVQAGGSLRLSCAASGRTFTGYAMGWYRQAPGKEREFVAAISSGGVRTYYADSVKGRFTISRDNAKNTVYLQMNSLKPEDTAVYYCNARQVYYRGTFRYSYDYWGQGTQVTVSS | high polyreactivity |
| QVHLVESGGGLVQAGGSLRLSCAASGRTFVRYAMGWYRQAPGKERELVAAISLRGGRTYYADSVKGRFTISRDNAKNTVYLQMNSLKPEDTAVYYCAARSYPTGASYDYWGQGTQVTVSS | high polyreactivity |
| QVHLVESGGGLVQAGGSLRLSCAASGRTFVYNSMGWYRQAPGKERELVAAISSDGASTYYADSVKGRFTISRDNAKNTVYLQMNSLKPEDTAVYYCAADFSYYSYEHYYWGQGTQVTVSS | low polyreactivity |
| QVHLVESGGGLVQAGGSLRLSCAASGRTFWIYGMGWYRPATGKERELVAAITRSGGSTNYADSVKGRFTLSRDNAKNNVYLQMNSLKPEVTAVYYGAADTWYPGYYAYDYRGQGTQVTVSS | high polyreactivity |
| QVHLVESGGGLVQAGGSLRLSCAASGRTFYRYAMGWYRQAPGKERELVAAINTGGSTYYADSVKGRFTISRDNAKTTVYLQMNSLKPEVTAVYYCAAEAASWWGYGYWGQGTKVTVSS | high polyreactivity |
| QVHLVESGGGLVQAGGSLRLSCAASGSIFAVYAMGWYRQAPGKERELVAAITRSGRTSYADSVKGRFTISRDNAKNTVYLQMNSLKPEDTAVFYCAVRTYYPTFGGFYYWGQGTQVTVSS | high polyreactivity |

| Sequence | polyreactivity (PSR sort gate) |
| --- | --- |
| QVHLVESGGGLVQAGGSLRLSCAASGSIFEAYAMGWSRQAPGKERELVAVISWRGGLTYYPDSVKGRFTISRDNAKNTLYLQMNSLKPDDTAVYYCNKAYWWHQVGLPRNYEYWGQGTQVTVSS | low polyreactivity |
| QVHLVESGGGLVQAGGSLRLSCAASGSIFFDGNAMGWYRQAPGKERELVAAISVSGGSTYYADSVKGRFTISRDNAKNTVYLQMNSLKPEDTAVYYCAKYPSNSYVPGDYWGQGTQVTVSS | low polyreactivity |
| QVHLVESGGGLVQAGGSLRLSCAASGSIFFGYAKGWYRQAPGKERELVAGMDTGGSTDYADSVTGRFTISRDNAKNTVYLQMNSLKPEDTAVYYWATYSYGAVTVDYWGQGTQVTVSS | low polyreactivity |
| QVHLVESGGGLVQAGGSLRLSCAASGSIFFGYTMGWYRQAPGKERELVAAITRRGGSTYYADSVKGRFTISRDNAKNTVYLQMNSLKPVDTAVYYCAAEVRRYVIVPYYYWGQGTQVTVSS | high polyreactivity |
| QVHLVESGGGLVQAGGSLRLSCAASGSIFGSQNAMGWYRQAPGKERELVAAYYTARGARTYYADSVKGRFTISRDNAKNTVYLQMNSLKPEDTAVYYCAPRRYGRYRYDYWGQGTQVTVSS | low polyreactivity |
| QVHLVESGGGLVQAGGSLRLSCAASGSIFGSYAMGWYRQAPGKERELVASITRVDSTNYADSVKGRFTISRDNAKNTVYLQMNSLKPEDTAVYYCNAGKTIDYRDGVGYDHWGQGTQVTVSS | low polyreactivity |
| QVHLVESGGGLVQAGGSLRLSCAASGSIFHKNAMGWYRQAPGKERELVAAITSGGTTYYADSVKGRFTISRDNAKNTVYLLMNSLKPEDTAVYYCNAAKFLYRHGFLSAGDMYYWGQGTQVTVSS | high polyreactivity |
| QVHLVESGGGLVQAGGSLRLSCAASGSIFKYYAMGWYRQAPGKETELVAAISSGGTTNYADSVKGRFTISRDNAKNTVYFQMNSLKPEDTEVYYCAAYSTYFRRRKWGYDYWGQGTQVTVSS | high polyreactivity |
| QVHLVESGGGLVQAGGSLRLSCAASGSIFLRYAMGWYRKAPGKERVLFAGITSSGGSTYYADSVQGRFTISRDNAKNTVYLQMNSLKPEDTAVYYCARGLYRIYSPVRYGYWGQGTQVTVSS | high polyreactivity |
| QVHLVESGGGLVQAGGSLRLSCAASGSIFSYYAMGWYRQAPGKERELVAAISQSGGSTYYSDSVKGRFTISRDNAKNTVYLQMNSLKPEDTAVYYCNSGRGTFKRYTALQYWGQGTQVTVSS | low polyreactivity |
| QVHLVESGGGLVQAGGSLRLSCAASGSIIGLYAMGWYRQAPGKERELVAYITGGGSTYYADSVKGRFTISRDIAKNTVYLQMNSLKPEDTAVYYCNKRGTEIGYDYWGQGTQVTVLS | low polyreactivity |
| QVHLVESGGGLVQAGGSLRLSCAASGSILGGNAMGWYRQAPGKERELVAAITFSGGGTYYADSVKGRFTISRDNAKNTVYLQMNSLKPEDTAVYYCAADKDGYTYEFDYWGQGTQVTVSS | low polyreactivity |
| QVHLVESGGGLVQAGGSLRLSCAASGSISTNYPMGWYRPAPGKERQLVAAISSSGGSTYYADSVKGRFTISRDNAKYTVYLQMNSLKPEDTAVYYCAATYWGRAYQGYRNLRYGYWGQGTQVTVSS | high polyreactivity |
| QVHLVESGGGLVQAGGSLRLSCAASGSNFARNAMGWYRHAPGKERELVAAITYSGGRTYYADSVKGRFTISRDNAKNTVYLQMNSLKPEDTAVFYCAVKSFSGHGDYWGQGTEVTVSS | low polyreactivity |
| QVHLVESGGGLVQAGGSLRLSCAASGSNYSYYGMGWYRQAPGKERELVAAITDGDGTNYADSVKGRFTISRDNAKNTVYLQMNSLIPEDTAVYYCNRDFWYGVSPGREFYLYDYWGQGTLVTVSS | low polyreactivity |
| QVHLVESGGGLVQAGGSLRLSCAASGSTFAGNTMGWYRQAPGKERELVASITSDGSTDYADSVKGRFTISRDNAKNTVYLQMNSLKPEDTAVYYCAIARGLSKMDSWGQGTQVTVSS | low polyreactivity |
| QVHLVESGGGLVQAGGSLRLSCAASGSTFGTNAMGWYRQAPGKERELVARINSSASTTYADSVKGRFTISRDNAKNTVYLQMNSLKPEDTAVYYCAKSSLNIYDYWGQGTQVTVSS | high polyreactivity |
| QVHLVESGGGLVQAGGSLRLSCAASGSTFGWYAMGWYRPSPGKERELVAAIRSNGGSTYYADSLKGRFTISRDNAKNTVYLQMNSLKPEDTAVFYCAARGSPSKHHWYDYWGQGTQVTVSS | low polyreactivity |
| QVHLVESGGGLVQAGGSLRLSCAASGSTFLLNAMGWYRQATGKERELVAGITGSGGRTYYADSVKGRFTISRDNAKNTVYLQMNSLKPEDTAVYYCAAYRNLYWYQHEYWGQGTLVTVSS | low polyreactivity |
| QVHLVESGGGLVQAGGSLRLSCAASGSTFQSNAMGWYRQAPGKERELVATITQSGATTYYADSVKGRFTISRDNAKNTVYLQMNSLNPEDTAVYYCNVDTYQKRWFWLDLDGGYWGQGTQVTVSS | low polyreactivity |
